Results: patent US20240092919A1
Each block holds one binder with its values, some of them ahead of it.

Molecular target: human GPC3 on cells (human) (UniProt P51654)
Assay: cell-based or functional assay

IC50 (M), Incucyte human TDC HepG2-Nuclight green assay, E:T 15:1 (Step 2): 5.28e-10 M
B1: A022600134 (protein)
chain: DVQLVESGGGVVQPGGSLRLSCVASGYVHKINFYGWYRQAPGKEREKVAHISIGDQTDYADSAKGRFTISRDESKNTVYLQMNSLRPEDTALYYCRALSRIWPYDYWGQGTLVTVSSGGGGSEVQLVESGGGLVQPGGSLRLSCVASGSIFRSVFSSSTMEWYRQPPGKKRELVARIAPGDGTNYGALYADSVKGRFTISRDDAKKTVDLQMNSLKPEDTGVYFCASGVAWGQGTLVTVSSGGGGSGGGGSGGGGSGGGGSEVQLVESGGGLVQPGGSLRLSCVASGFTFSSFAMTWVRRPPGKGLEWVATITNGGVTSYRDSVKGRFTISRDNAKNTLYLEMTSLNPEDTAVYICANARRTGPRAPTDIGSYRGQGTLVTVSSGGGGSGGGGSGGGGSGGGGSGGGGSGGGGSGGGGSEVQLVESGGGVVQPGGSLRLSCAASGFTFRSFGMSWVRQAPGKGPEWVSSISGSGSDTLYADSVKGRFTISRDNSKNTLYLQMNSLRPEDTALYYCTIGGSLSRSSQGTLVTVSSA
Max % Killing, Incucyte human TDC HepG2-Nuclight green assay (Step 2): 92%

IC50 (M), Incucyte human TDC HepG2-Nuclight green assay, E:T 15:1 (Step 2): 4.08e-10 M
B2: A022600133 (protein)
chain: DVQLVESGGGVVQPGGSLRLSCVASGYVHKINFYGWYRQAPGKEREKVAHISIGDQTDYADSAKGRFTISRDESKNTVYLQMNSLRPEDTALYYCRALSRIWPYDYWGQGTLVTVSSGGGGSEVQLVESGGGLVQPGGSLRLSCVASGSIFRSVFSSSTMEWYRQPPGKKRELVARIAPGDGTNYGALYADSVKGRFTISRDDAKKTVDLQMNSLKPEDTGVYFCASGVAWGQGTLVTVSSGGGGSGGGGSGGGGSGGGGSGGGGSGGGGSGGGGSEVQLVESGGGLVQPGGSLRLSCVASGFTFSSFAMTWVRRPPGKGLEWVATITNGGVTSYRDSVKGRFTISRDNAKNTLYLEMTSLNPEDTAVYICANARRTGPRAPTDIGSYRGQGTLVTVSSGGGGSGGGGSGGGGSGGGGSGGGGSGGGGSGGGGSEVQLVESGGGVVQPGGSLRLSCAASGFTFRSFGMSWVRQAPGKGPEWVSSISGSGSDTLYADSVKGRFTISRDNSKNTLYLQMNSLRPEDTALYYCTIGGSLSRSSQGTLVTVSSA
Max % Killing, Incucyte human TDC HepG2-Nuclight green assay (Step 2): 92%

HepG2 on Incucyte IC50 (M), human TDC, E:T 15:1, 60 h: 6.83e-10 M
Huh7 on xCELLigence IC50 (M), human TDC, E:T 15:1, 60 h: 2.9e-10 M
IC50 (M), Incucyte human TDC HepG2-Nuclight green assay, E:T 15:1 (Step 2): 7.02e-10 M
B3: A022600132 (protein)
chain: DVQLVESGGGVVQPGGSLRLSCVASGYVHKINFYGWYRQAPGKEREKVAHISIGDQTDYADSAKGRFTISRDESKNTVYLQMNSLRPEDTALYYCRALSRIWPYDYWGQGTLVTVSSGGGGSEVQLVESGGGLVQPGGSLRLSCVASGFTFSSFAMTWVRRPPGKGLEWVATITNGGVTSYRDSVKGRFTISRDNAKNTLYLEMTSLNPEDTAVYICANARRTGPRAPTDIGSYRGQGTLVTVSSGGGGSGGGSEVQLVESGGGLVQPGGSLRLSCVASGSIFRSVFSSSTMEWYRQPPGKKRELVARIAPGDGTNYGALYADSVKGRFTISRDDAKKTVDLQMNSLKPEDTGVYFCASGVAWGQGTLVTVSSGGGGSGGGGSGGGGSGGGGSGGGGSGGGGSGGGGSEVQLVESGGGVVQPGGSLRLSCAASGFTFRSFGMSWVRQAPGKGPEWVSSISGSGSDTLYADSVKGRFTISRDNSKNTLYLQMNSLRPEDTALYYCTIGGSLSRSSQGTLVTVSSA
HepG2 on Incucyte Max % killing, 60 h: 83%
Huh7 on xCELLigence Max % killing, 60 h: 95%
Max % Killing, Incucyte human TDC HepG2-Nuclight green assay (Step 2): 91%
